T1: OX40 on T cells (human, UniProt P43489)
T1 chain: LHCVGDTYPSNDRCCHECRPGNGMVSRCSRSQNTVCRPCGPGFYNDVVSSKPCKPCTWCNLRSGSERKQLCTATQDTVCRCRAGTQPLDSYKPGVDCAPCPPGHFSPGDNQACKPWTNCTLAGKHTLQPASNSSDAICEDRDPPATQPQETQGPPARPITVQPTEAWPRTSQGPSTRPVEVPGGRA

T2: FcγRIIa 167R (human, UniProt P12318)
T2 chain: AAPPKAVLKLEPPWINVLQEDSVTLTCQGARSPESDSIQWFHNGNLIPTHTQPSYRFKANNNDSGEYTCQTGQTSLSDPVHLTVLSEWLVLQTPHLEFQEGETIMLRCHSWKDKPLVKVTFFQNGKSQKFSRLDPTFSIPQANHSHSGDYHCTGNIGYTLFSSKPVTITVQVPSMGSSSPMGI

T3: FcγRIIb (human, UniProt P31994)
T3 chain: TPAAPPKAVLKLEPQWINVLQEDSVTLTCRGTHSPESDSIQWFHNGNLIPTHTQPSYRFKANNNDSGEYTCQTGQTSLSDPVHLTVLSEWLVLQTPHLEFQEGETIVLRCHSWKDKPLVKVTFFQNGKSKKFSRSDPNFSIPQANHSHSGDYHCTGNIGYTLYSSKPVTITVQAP


Tests used:
OX40 on T cells [1] = target: T1, OX40 on T cells; test: other, CD8+ T cells, apparent affinity
OX40 on T cells [2] = target: T1, OX40 on T cells; test: other, CD4+ T cells, apparent affinity
FcγRIIa 167R = target: T2, FcγRIIa 167R; test: SPR
FcγRIIb = target: T3, FcγRIIb; test: SPR
FcRn = FcRn (human, UniProt P55899); test: SPR, pH 7.4

Row | Binder | Kd (OX40 on T cells [1]) [nM] | Kd (OX40 on T cells [2]) [nM] | binding result (FcγRIIa 167R) | binding result (FcγRIIb) | binding result (FcRn)
1 | GBR 830 (OX40 binding) (antibody, V domains shown) VH: QVTLKESGPALVKPTQTLTLTCSFSGFSLSTSGMGVGWIRQPPGKALEWIAHIWWDDDKYYNTALKTRLTISKDTSKNQVVLTMTNMDPVDTATYYCARIDWDGFAYWGQGTLVTVSS VL: EIVLTQSPATLSLSPGERATLSCRASSSVSYMHWYQQKPGQAPRPWIYATSNRATGIPARFSGSGSGTDYTLTISSLEPEDFAVYYCQQWSSNPWTFGQGTKVEIK | 3.46 | 1.25 | – | – | –
2 | MAB10 full (antibody) chain 1: QVTLKESGPALVKPTQTLTLTCSFSGFSLSTSGMGVGWIRQPPGKALEWIAHIWWDDDKYYNTALKTRLTISKDTSKNQVVLTMTNMDPVDTATYYCARIDWDGFAYWGQGTLVTVSSASTKGPSVFPLAPSSKSTSGGTAALGCLVKDYFPEPVTVSWNSGALTSGVHTFPAVLQSSGLYSLSSVVTVPSSSLGTQTYICNVNHKPSNTKVDKKVEPKSCDKTHTCPPCPAPELLGGPSVFLFPPKPKDTLYITREPEVTCVVVDVSHEDPEVKFNWYVDGVEVHNAKTKPREEQYNSTYRVVSVLTVLHQDWLNGKEYKCKVSNKALPAPIEKTISKAKGQPREPQVYTLPPSRDELTKNQVSLTCLVKGFYPSDIAVEWESNGQPENNYKTTPPVLDSDGSFFLYSKLTVDKSRWQQGNVFSCSVMHEALHNHYTQKSLSLSPGK chain 2: EIVLTQSPATLSLSPGERATLSCRASSSVSYMHWYQQKPGQAPRPWIYATSNRATGIPARFSGSGSGTDYTLTISSLEPEDFAVYYCQQFGAWPWTFGQGTKVEIKRTVAAPSVFIFPPSDEQLKSGTASVVCLLNNFYPREAKVQWKVDNALQSGNSQESVTEQDSKDSTYSLSSTLTLSKADYEKHKVYACEVTHQGLSSPVTKSFNRGEC | – | – | no binding | no binding | no binding

The remaining lines, values ahead:

Row | Kd (OX40 on T cells [1]) [nM] | Kd (OX40 on T cells [2]) [nM] | binding result (FcγRIIa 167R) | binding result (FcγRIIb) | binding result (FcRn) | Binder
3 | – | – | – | – | no binding | MAB1 full (antibody) chain 1: not shown chain 2: EIVLTQSPATLSLSPGERATLSCRASSSVSYMHWYQQKPGQAPRPWIYATSNRATGIPARFSGSGSGTDYTLTISSLEPEDFAVYYCQQFGAWPWTFGQGTKVEIKRTVAAPSVFIFPPSDEQLKSGTASVVCLLNNFYPREAKVQWKVDNALQSGNSQESVTEQDSKDSTYSLSSTLTLSKADYEKHKVYACEVTHQGLSSPVTKSFNRGEC
4 | – | – | – | – | no binding | GBR 830 full (antibody) chain 1: not shown chain 2: EIVLTQSPATLSLSPGERATLSCRASSSVSYMHWYQQKPGQAPRPWIYATSNRATGIPARFSGSGSGTDYTLTISSLEPEDFAVYYCQQWSSNPWTFGQGTKVEIKRTVAAPSVFIFPPSDEQLKSGTASVVCLLNNFYPREAKVQWKVDNALQSGNSQESVTEQDSKDSTYSLSSTLTLSKADYEKHKVYACEVTHQGLSSPVTKSFNRGEC

Source: patent US12742015 (dated 2026)
